The record followed here is the supplement of paper PMC10724198.

± gives the standard deviation of the averaged measurements.
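Note: PSI is a weighted mean of sequencing reads over stability bins, variants kept only with over 10 reads, mCherry proximal and sfGFP distal, peptide attached via GGGS linker.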

This data set has as its system Saccharomyces cerevisiae. As to the kind of experiment: protein stability index of tFT-peptide fusion (C-terminal peptide) (PSI (0-1 scale)); higher = more stable (slower turnover). The note with it: genetic background: wild type; temperature: 30 C.
For PVFLQRVIPRSR, the protein stability index is 0.678 ± 0.096.

PVHHLSLPSPLL had a protein stability index of 0.732 ± 0.037. To PVLPPPAPSPPP belongs 0.678 ± 0.042; to PVLVLPHARSPF, 0.695 ± 0.021. The sequence PVPASSSRSLLL showed a protein stability index of 0.671 ± 0.0095. In the case of PVPPQHPPLKSI it was 0.705 ± 0.059; in that of PVPRRPLLPLPP, 0.663 ± 0.02; in that of PVPSPLLPSFSL, 0.715 ± 0.064. In the case of PVSPALTPFPPS it was 0.705 ± 0.043.

As to PVSSPSSPLPPL, the protein stability index stood at 0.678 ± 0.054. In the case of PVVKVCRPVFLD it was 0.829 ± 0.13; in that of PWFIGGSLGESG, 0.699 ± 0.027.

PWQSSPFTPALT registered a protein stability index of 0.649 ± 0.057. PWTRMHRETRYL: the protein stability index was 0.683 ± 0.02. In the case of PWVSGGMGKGDV it was 0.686 ± 0.0075.

Consider PYAFPPPPPPPP, for which the protein stability index is 0.64 ± 0.032. To PYFLLLVSIPPS belongs 0.525 ± 0.0056. PYHTITPKPLQR displayed a protein stability index of 0.677 ± 0.049. For the sequence PYLLGPIPGIPR, the protein stability index came out at 0.666 ± 0.059. With PYPPPPRLLVSP, the protein stability index is 0.7359 ± 0.0056.

With PYQPSPFRLAAG, the protein stability index came out at 0.67 ± 0.1. For PYRPPPPLALSL, the protein stability index came to 0.693 ± 0.015. To PYRWQTRPDAVD belongs 0.666 ± 0.014; to PYSCPPGCRSVL, 0.6894 ± 0.0043; to PYSGSPRALPRP, 0.716 ± 0.069.

The sequence PYTHFFSPPFWP showed a protein stability index of 0.766 ± 0.04. To PYTPLLLSTLAP belongs 0.6899 ± 0.0016; to PYWYPRASRGAL, 0.699 ± 0.043; to QAKNNKKQKGWQ, 0.646 ± 0.046. In the case of QARKGPISSCRP it was 0.664 ± 0.067. In the case of QARSLVRSLCYP it was 0.677 ± 0.0082; in that of QAVVGSYRELGE, 0.709 ± 0.038. Turning to QCIYVCKKTPTI, the protein stability index came to 0.679 ± 0.067. In the case of QCNTFNKEKPER it was 0.694 ± 0.021; in that of QCQVKGIFKKVF, 0.687 ± 0.0076. To QDDTASMVVMIR belongs 0.697 ± 0.034; to QDLDTALLLHAF, 0.657 ± 0.018. In the case of QDSDRSLTPKPL it was 0.688 ± 0.028; in that of QEALLAPEYSVD, 0.7 ± 0.0096. The sequence QEMMRGVVGGNW yielded a protein stability index of 0.715 ± 0.033. In the case of QEVKLAPEHRLR it was 0.675 ± 0.013.

The sequence QFCYSNPVSRYG had a protein stability index of 0.6899 ± 0.004. The sequence QFIFSRGGLPVL displayed a protein stability index of 0.7351 ± 0.0015. For the sequence QFIPIRSIIMRG, the protein stability index came out at 0.73 ± 0.038. To QFLWCFRPCCCS belongs 0.584 ± 0.081; to QFVLLFRSSGLR, 0.7104 ± 0.0017. In the case of QGERHCCILVST it was 0.555 ± 0.025; in that of QGGLCGVYGWSL, 0.68 ± 0.042; in that of QGGSHARDRRRL, 0.678 ± 0.013. To QHFSSPQPVPYS belongs 0.696 ± 0.013.

Consider QIKARVRRDLTL, for which the protein stability index was found to be 0.692 ± 0.096. In the case of QKKIKNKRQHRT it was 0.795 ± 0.11; in that of QKKKILNKQRTK, 0.681 ± 0.033; in that of QKKKKNRKQKIK, 0.696 ± 0.017. As to QKKKPEKKAKRA, the protein stability index was 0.721 ± 0.013. In the case of QKNMVKKVENTR it was 0.7637 ± 0.0067. QKPHGDVSFQVM displayed a protein stability index of 0.662 ± 0.033.

Sequence QKPKDYTEDKRD gave a protein stability index of 0.718 ± 0.11. In turn, QKRAREKAPTPD returned a protein stability index of 0.729 ± 0.012. QKTYHATQTRRR came in with a protein stability index of 0.6839 ± 0.00099. In the case of QLASISPSPNPS it was 0.692 ± 0.021; in that of QLCRPRIFTNRG, 0.662 ± 0.034; in that of QLDRRKDSLLRH, 0.746 ± 0.017. In the case of QLPPRLSRRLPP it was 0.741 ± 0.17.
